Target: T1, Muc16 on tumor cells (human, UniProt Q8WXI7 1-14507)
T1 construct: whole, on cells; Endogenous protein; also called CA125
Experiment: flow cytometry on WISH cells

fold fluorescence shift at saturation binding against MJ-171: > 5 fold
B1: OC125 (antibody)
chain 1: QVQLQESGPELVKPGASVKISCKASGYTFTDYNMHWVKQSHGKSLEWIGYIYPYNGDTGYNQKFRNKASLTVDTSSSTAYMELRSLTSEDSAVYYWARSGGFWYFDVWGQGGTTVTVSS
chain 2: DIQMTQSPAILSASPGEKVTMTCRATPSVSYMHWYQQKPGSSPKPLIYTTSNLASGVPARFSGGGSGTSYSLTVSRVEVEDAATYYCQQWSRSPPTFGAGTKLEIK

— US20040057952A1 (IMMUNOGEN, published 2004)
